Laboratory results: patent publication US20250361317A1 (Janssen / Centocor, published 2025)

Columns and labels:
[1] = target: T1, EMR2W4, huEMR2 GAIN domain + GPS, D261-T540, with C-terminal Avi/6x His tag (human); test: SPR, EMR2 arm, forced degradation study: chemical oxidation
T1 construct: also called Human EMR2 GAIN domain protein
T1 chain: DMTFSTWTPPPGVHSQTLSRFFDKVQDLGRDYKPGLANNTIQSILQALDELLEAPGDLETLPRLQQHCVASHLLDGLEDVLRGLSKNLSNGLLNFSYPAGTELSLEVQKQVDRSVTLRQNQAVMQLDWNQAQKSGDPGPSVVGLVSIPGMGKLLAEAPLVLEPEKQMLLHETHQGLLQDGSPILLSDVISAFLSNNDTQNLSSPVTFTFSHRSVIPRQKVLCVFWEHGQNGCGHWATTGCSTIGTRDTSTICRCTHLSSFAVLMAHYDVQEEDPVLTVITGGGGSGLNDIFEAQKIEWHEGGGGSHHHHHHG

[2] = target: T1, EMR2W4, huEMR2 GAIN domain + GPS, …; test: SPR, EMR2 arm, forced degradation study: pH 5.0
[3] = target: T1, EMR2W4, huEMR2 GAIN domain + GPS, …; test: SPR, EMR2 arm, forced degradation study: Thermal
[4] = target: T2, T-cell receptor with TRBV19 (Vβ17) beta chain on human T cells (human); test: cell-based or functional assay
T2 sequence (A0A075B6N1 22-114): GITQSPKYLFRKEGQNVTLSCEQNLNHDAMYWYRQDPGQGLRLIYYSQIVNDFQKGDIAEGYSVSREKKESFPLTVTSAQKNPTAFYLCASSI

[5] = target: T3, human EMR2 (ADGRE2, CD312) on cells (human, UniProt Q9UHX3 24-823); test: cell-based or functional assay
T3 sequence: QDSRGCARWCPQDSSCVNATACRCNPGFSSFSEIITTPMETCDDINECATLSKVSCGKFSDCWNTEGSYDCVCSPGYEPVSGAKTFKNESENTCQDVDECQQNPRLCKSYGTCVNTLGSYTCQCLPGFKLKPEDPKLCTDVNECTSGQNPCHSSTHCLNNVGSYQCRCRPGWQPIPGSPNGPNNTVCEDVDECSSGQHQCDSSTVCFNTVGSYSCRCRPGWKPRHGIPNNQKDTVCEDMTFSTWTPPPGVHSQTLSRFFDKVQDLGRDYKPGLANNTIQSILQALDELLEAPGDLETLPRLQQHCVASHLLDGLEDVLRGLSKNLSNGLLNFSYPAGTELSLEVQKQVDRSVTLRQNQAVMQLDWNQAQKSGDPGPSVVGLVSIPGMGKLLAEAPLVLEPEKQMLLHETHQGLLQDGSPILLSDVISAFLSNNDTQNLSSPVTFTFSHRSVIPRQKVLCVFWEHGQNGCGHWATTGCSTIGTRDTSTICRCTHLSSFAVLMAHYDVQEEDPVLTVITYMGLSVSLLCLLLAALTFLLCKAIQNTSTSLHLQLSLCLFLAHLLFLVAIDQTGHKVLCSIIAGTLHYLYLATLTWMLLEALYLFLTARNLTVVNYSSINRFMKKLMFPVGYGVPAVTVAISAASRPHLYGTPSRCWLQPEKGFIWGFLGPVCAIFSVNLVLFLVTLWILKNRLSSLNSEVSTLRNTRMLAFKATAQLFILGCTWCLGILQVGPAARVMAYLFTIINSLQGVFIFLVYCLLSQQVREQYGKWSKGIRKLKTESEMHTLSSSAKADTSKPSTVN

FcRn (human) = target: T4, FcRn (human) (human, UniProt P55899 24-297; P61769 21-119); test: FcRn binding (human, pH 6)
T4 construct: also called neonatal Fc receptor
T4 sequence (P55899 24-297 limits assumed, chain 1 of 2): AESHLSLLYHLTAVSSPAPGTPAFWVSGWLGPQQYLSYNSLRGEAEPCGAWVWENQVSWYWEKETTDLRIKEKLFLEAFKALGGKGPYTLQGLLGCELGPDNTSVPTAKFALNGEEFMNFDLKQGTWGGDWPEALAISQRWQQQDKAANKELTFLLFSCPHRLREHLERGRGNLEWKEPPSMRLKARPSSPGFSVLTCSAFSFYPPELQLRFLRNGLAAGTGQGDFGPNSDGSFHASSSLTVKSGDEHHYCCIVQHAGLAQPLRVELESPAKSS
T4 sequence (P61769 21-119 limits assumed, chain 2 of 2): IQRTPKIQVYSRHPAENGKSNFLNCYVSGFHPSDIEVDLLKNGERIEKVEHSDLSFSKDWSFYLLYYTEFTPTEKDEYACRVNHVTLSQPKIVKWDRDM

[6] = target: T2, T-cell receptor with TRBV19 (Vβ17) beta …; test: flow cytometry, % TRBV19+ T cells of live human pan-T cells, 1 hour at 37 C
[7] = target: T1, EMR2W4, huEMR2 GAIN domain + GPS, …; test: SPR, row 'SPR (KD) / EMR2' of the Forced Degradation table; first sample batch (in PBS); stress condition of the KD and EMR2 construct not named on the sheet
[8] = target: T2, T-cell receptor with TRBV19 (Vβ17) beta …; test: flow cytometry, percent TRBV19+ of live pan-T cells, Donor 3, 1 hour, 37 °C
[9] = target: T3, human EMR2 (ADGRE2, CD312) on cells; test: flow cytometry, OCI-AML3 cells, 1 hour at 37 °C; mean ± SEM
Method: (§1) After secondary detection with AF647-labeled material, the MFI signal was analyzed to generate an EC50 value. Curves are representative of 3 independent experiments.

[10] = target: T1, EMR2W4, huEMR2 GAIN domain + GPS, …; test: SPR, EMR2 arm, forced degradation study: Release
[11] = target: T2, T-cell receptor with TRBV19 (Vβ17) beta …; test: flow cytometry, percent TRBV19+ of live pan-T cells, Donor 1, 1 hour, 37 °C
[12] = target: T3, human EMR2 (ADGRE2, CD312) on cells; test: flow cytometry, median AF647 of live cells, MOLM 13 cells, 1 hour at 37 C
[13] = target: T2, T-cell receptor with TRBV19 (Vβ17) beta …; test: flow cytometry, percent TRBV19+ of live pan-T cells, Donor 6, 1 hour, 37 °C
[14] = target: T3, human EMR2 (ADGRE2, CD312) on cells; test: flow cytometry, OCI-AML2 cells, 1 hour at 37 °C; mean ± SEM
Method: as §1

[15] = target: T3, human EMR2 (ADGRE2, CD312) on cells; test: flow cytometry, MOLM-13 cells, 1 hour at 37 °C; mean ± SEM
Method: as §1

B1: EMVBB8 (EMR2 x TRBV19 bispecific antibody) (bispecific antibody, human IgG1, kappa, L234A L235A)
heavy 1: DIQMTQSPSSLSASVGDRVTITCRSSQSLVHSNRNTYLHWYQQKPGCAPKLLIYKVSNRFSGVPSRFSGSGSGTDFTLTISSLQPEDFATYYCSQSTHVPFTFGQGTKLEIKGGGSGGSGGCPPCGGSGGQVQLQESGPGLVKPSETLSLTCTVSGYSITSGYFWNWIRQFPGKGLEWMGYISYDGSNNYNPSLKSRITISRDTSKNQFSLKLSSVTAADTAVYYCASPSPGTGYAVDYWGCGTTVTVSSEPKSSDKTHTCPPCPAPEAAGGPSVFLFPPKPKDTLMISRTPEVTCVVVSVSHEDPEVKFNWYVDGVEVHNAKTKPREEQYNSTYRVVSVLTVLHQDWLNGKEYKCKVSNKALPAPIEKTISKAKGQPREPQVYTLPPSREEMTKNQVSLWCLVKGFYPSDIAVEWESNGQPENNYKTTPPVLDSDGSFFLYSKLTVDKSRWQQGNVFSCSVMHEALHNHYTQKSLSLSPGK
heavy 2: EVQLVESGGGLVQPGGSLRLSCTASGFTFSRYSMNWVRQAPGEGLEWVSYISSSSNTIYYADSVKGRFTISRDNAKNSLYLQMNSLRDEDTAVYYCARDQGTPFDYWGQGTLVTVSSASTKGPSVFPLAPSSKSTSGGTAALGCLVKDYFPEPVTVSWNSGALTSGVHTFPAVLQSSGLYSLSSVVTVPSSSLGTQTYICNVNHKPSNTKVDKKVEPKSCDKTHTCPPCPAPEAAGGPSVFLFPPKPKDTLMISRTPEVTCVVVSVSHEDPEVKFNWYVDGVEVHNAKTKPREEQYNSTYRVVSVLTVLHQDWLNGKEYKCKVSNKALPAPIEKTISKAKGQPREPQVYTLPPSREEMTKNQVSLSCAVKGFYPSDIAVEWESNGQPENNYKTTPPVLDSDGSFFLVSKLTVDKSRWQQGNVFSCSVMHEALHNRFTQKSLSLSPGK
light: EIVLTQSPSSVSASIGDRVTITCRASQDISSWLGWYQQKPGKAPKLLIYAAISLQSGVPSRFSGSESGTDFTLTISSLQPEDFATYYCHQANSFPLTFGGGTKVEIKRTVAAPSVFIFPPSDEQLKSGTASVVCLLNNFYPREAKVQWKVDNALQSGNSQESVTEQDSKDSTYSLSSTLTLSKADYEKHKVYACEVTHQGLSSPVTKSFNRGEC
notes: also called the bispecific antibody
**Q.** How did the Kd [1] turn out when B1 was run?
**A.** The Kd was 0.2 nM.

**Q.** And the Kd [2]?
**A.** The Kd was 0.2 nM.

**Q.** What about the Kd [3] of the same binder?
**A.** The Kd was 0.22 nM.

**Q.** And the “Pan-T-cell activation (CD25), EC50 (nM), 24 hours, PBMC + OCI-AML3” value [4]?
**A.** The value was 0.02 nM.

**Q.** And the “Pan-T-cell activation (CD25), EC50 (nM), 48 hours, PBMC + OCI-AML3” value [4]?
**A.** Its value is 0.01 nM.

**Q.** What about the “Pan-T-cell activation (CD25), EC50 (nM), 72 hours, PBMC + OCI-AML3” value [4] of the same binder?
**A.** Its value is 0.01 nM.

**Q.** And the “Pan-T-cell activation (CD25), EC50 (nM), 96 hours, PBMC + OCI-AML3” value [4]?
**A.** The value was 0.01 nM.

**Q.** What about the “Pan-T-cell activation (CD25), EC50 (nM), 120 hours, PBMC + OCI-AML3” value [4] of the same binder?
**A.** The value was 0.01 nM.

**Q.** What about the “Cytotoxicity, EC50 (nM), 24 hours, PBMC + OCI-AML3” value [5] of the same binder?
**A.** Its value is 0.02 nM.

**Q.** And the “Cytotoxicity, EC50 (nM), 48 hours, PBMC + OCI-AML3” value [5]?
**A.** The value was 0.01 nM.

**Q.** And the “Cytotoxicity, EC50 (nM), 72 hours, PBMC + OCI-AML3” value [5]?
**A.** Its value is 0.004 nM.

**Q.** And the “Cytotoxicity, EC50 (nM), 96 hours, PBMC + OCI-AML3” value [5]?
**A.** The value was 0.003 nM.

**Q.** What about the “Cytotoxicity, EC50 (nM), 120 hours, PBMC + OCI-AML3” value [5] of the same binder?
**A.** The value was 0.004 nM.

**Q.** And the Kd (FcRn (human))?
**A.** Its Kd is 306 nM.

**Q.** What about the EC50 [6] of the same binder?
**A.** The EC50 was 13.1 nM.

**Q.** What about the “Max % TRV19+” value [6] of the same binder?
**A.** The value was 7.72%.

**Q.** And the Kd [7]?
**A.** Its Kd is 0.154 nM.

**Q.** What about the EC50 [8] of the same binder?
**A.** Its EC50 is 6.2 nM.

**Q.** What about the EC50 [9] of the same binder?
**A.** Its EC50 is 48 nM.

**Q.** And the Kd [10]?
**A.** Its Kd is 0.19 nM.

**Q.** What about the EC50 [11] of the same binder?
**A.** The EC50 was 7.8 nM.

**Q.** What about the EC50 [12] of the same binder?
**A.** Its EC50 is 16.4 nM.

**Q.** What about the “Max (MFI)” value [12] of the same binder?
**A.** Its value is 400000 MFI.

**Q.** And the EC50 [13]?
**A.** The EC50 was 4.9 nM.

**Q.** What about the EC50 [14] of the same binder?
**A.** The EC50 was 55 nM.

**Q.** What about the EC50 [15] of the same binder?
**A.** The EC50 was 53 nM.
